Assays:
p62(PB1)-p53 = experiment: cell-based or functional assay
p62(PB1)-FKBP12 = experiment: cell-based or functional assay

IC50 of Nutlin-3, total luminance of fluorescent foci per cell (stable CHO-K1 line) (p62(PB1)-p53) [µM]	IC50 of FK506 in the presence of 20 nM rapamycin, total fluorescence intensity of fluorescent foci per cell (stable HeLaS3 line) (p62(PB1)-FKBP12) [µM]	Substance
8.9	–	AG-MDM2
–	0.68	mTOR(FRB)-AG

Reference: US20140335539A1
